B1: Telomere length regulation protein TEL2 homolog (Homo sapiens), Q9Y4R8 (parent)
chain: MEPAPSEVRLAVREAIHALSSSEDGGHIFCTLESLKRYLGEMEPPALPREKEEFASAHFSPVLRCLASRLSPAWLELLPHGRLEELWASFFLEGPADQAFLVLMETIEGAAGPSFRLMKMARLLARFLREGRLAVLMEAQCRQQTQPGFILLRETLLGKVVALPDHLGNRLQQENLAEFFPQNYFRLLGEEVVRVLQAVVDSLQGGLDSSVSFVSQVLGKACVHGRQQEILGVLVPRLAALTQGSYLHQRVCWRLVEQVPDRAMEAVLTGLVEAALGPEVLSRLLGNLVVKNKKAQFVMTQKLLFLQSRLTTPMLQSLLGHLAMDSQRRPLLLQVLKELLETWGSSSAIRHTPLPQQRHVSKAVLICLAQLGEPELRDSRDELLASMMAGVKCRLDSSLPPVRRLGMIVAEVVSARIHPEGPPLKFQYEEDELSLELLALASPQPAGDGASEAGTSLVPATAEPPAETPAEIVDGGVPQAQLAGSDSDLDSDDEFVPYDMSGDRELKSSKAPAYVRDCVEALTTSEDIERWEAALRALEGLVYRSPTATREVSVELAKVLLHLEEKTCVVGFAGLRQRALVAVTVTDPAPVADYLTSQFYALNYSLRQRMDILDVLTLAAQELSRPGCLGRTPQPGSPSPNTPCLPEAAVSQPGSAVASDWRVVVEERIRSKTQRLSKGGPRQGPAGSPSRFNSVAGHFFFPLLQRFDRPLVTFDLLGEDQLVLGRLAHTLGALMCLAVNTTVAVAMGKALLEFVWALRFHIDAYVRQGLLSAVSSVLLSLPAARLLEDLMDELLEARSWLADVAEKDPDEDCRTLALRALLLLQRLKNRLLPPASP

Variants of: B1
Conditions: with pihd1_human PIH1D1, Q9NWS0
Sequence of pihd1_human PIH1D1, Q9NWS0 (Q9NWS0 whole entry): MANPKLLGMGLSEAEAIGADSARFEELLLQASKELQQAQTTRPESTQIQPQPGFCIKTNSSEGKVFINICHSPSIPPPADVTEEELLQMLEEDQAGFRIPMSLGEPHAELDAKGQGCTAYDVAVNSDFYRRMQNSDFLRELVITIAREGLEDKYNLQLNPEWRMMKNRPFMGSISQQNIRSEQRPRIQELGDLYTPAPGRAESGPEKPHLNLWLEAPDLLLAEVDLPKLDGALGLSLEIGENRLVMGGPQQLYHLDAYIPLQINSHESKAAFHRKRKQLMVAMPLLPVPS

Variant	effect of a mutation on the interaction
D492A;D493A	disrupting interaction strength

Variants of: B1
Conditions: with pihd1_human PIH1D1, Q9NWS0
Remark: another data set of the same source

Variant	effect of a mutation on the interaction
D490A	disrupting interaction strength
D493A	disrupting interaction strength
D492A	disrupting interaction strength

Source: IntAct's records for PubMed 24656813
